Assay [1] addresses T1, cynomolgus monkey CD40 on CD20+ B cells in blood (Macaca fascicularis (cynomolgus monkey), UniProt P25942 21-277 (human entry)).
T1 construct: also called cynoCD40
T1 chain: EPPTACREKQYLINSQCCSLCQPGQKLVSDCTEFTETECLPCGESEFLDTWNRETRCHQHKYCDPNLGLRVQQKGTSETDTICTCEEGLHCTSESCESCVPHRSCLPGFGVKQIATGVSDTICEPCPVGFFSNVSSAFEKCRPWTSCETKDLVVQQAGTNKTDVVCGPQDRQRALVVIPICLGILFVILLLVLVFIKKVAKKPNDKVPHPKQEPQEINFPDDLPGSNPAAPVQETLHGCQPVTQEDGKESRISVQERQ
As to the kind of experiment: flow cytometry on whole blood, anti-PEG detection, gate on CD20+ B cells.
Description: (§1) 100 μl from each blood sample was aliquoted to 12×75 mm tubes and washed 3 times with FACS buffer (0.5% FBS/PBS/0.1% sodium azide). Tubes were centrifuged for 5 minutes at 1500 rpm, and supernatants were decanted between washes. Following the washes, tubes were placed on ice and incubated with human IgG for 5 minutes to block non-specific binding via Fc receptors.
(§2) Samples were washed once in FACS buffer, then incubated with an APC-labeled CD20 antibody (clone 2H7, BD Biosciences) and PE labeled-anti-mouse IgG (Fcγ1 specific; Calbiochem) for an additional 30 minutes on ice.
(§3) To lyse red blood cells and fix white blood cells following detection antibody incubation, FACS Lysing Solution (BD Biosciences) was added to all tubes, and samples were incubated for 15 minutes at room temperature. Samples were centrifuged and resuspended in FACS Lysing Solution, and analyzed by flow cytometry on a BD FACSCanto™, gating on CD20+ B cells for analysis. For marmoset samples, the CD20 antibody was not cross reactive; therefore analysis was performed on all lymphocytes as identified by forward and side scatter properties (size).

Assay [2] addresses T2, rhesus macaque CD40 on CD20+ B cells in blood (rhesus macaque, UniProt F6SNI1 21-278).
T2 construct: whole, on cells; also called rhesus CD40
The assay is described as above.
Description: as §1, §2, §3

In assay [3] the target is T3, marmoset CD40 on blood lymphocytes (marmoset, UniProt Q3LRP1 21-274).
T3 construct: whole, on cells
As to the kind of experiment: flow cytometry on whole blood, anti-PEG detection, all lymphocytes by scatter. In general terms: Flow cytometry measures light scatter and fluorescence of single cells or particles in a stream.
Description: as §1, §2, §3

Assay [4] deals with T3, marmoset CD40 on blood lymphocytes. As to the kind of experiment: flow cytometry on whole blood, PE-streptavidin detection, all lymphocytes by scatter.
Description: as §1
(§4) For biotin-conjugated dAb detection, PE-labeled streptavidin (Invitrogen) and APC-labeled CD20 antibody (clone 2H7, BD Biosciences) were added to tubes and incubated 30 minutes at room temperature.
as §3
For assay [5], the target named is T1, cynomolgus monkey CD40 on CD20+ B cells …. As to the kind of experiment: flow cytometry on whole blood, PE-streptavidin detection, gate on CD20+ B cells.
Description: as §1, §4, §3
In assay [6] the target is T2, rhesus macaque CD40 on CD20+ B cells in …. Described as above.
Description: as §1, §4, §3
Assay [7] concerns the target human CD40 on primary human cells (blood CD20+ B cells, tonsillar B cells, monocyte-derived dendritic cells) (human, UniProt P25942 21-277). As to the kind of experiment: flow cytometry on human whole blood, PE-streptavidin detection, gate on CD20+ B cells.
Description: as §1, §4, §3
In assay [8] the target is T4, human CD40 (H76R) Fc fusion (human, UniProt P25942 21-193).
T4 construct: also called hCD40-M1; hCD40 M1 (H76R); not shown: human IgG1 Fc
As to the kind of experiment: SPR, ProteOn XPR36; CD40-Fc captured, dAb analyte; 1:1 fit.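 Note: CD40-Fc captured on anti-human IgG(Fc) surface of a GLC chip, buffer pH 7.1, sensorgrams double-referenced against surfaces without CD40-Fc.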 A general note: SPR reads the build-up and loss of mass on a sensor chip optically.

In assay [9] the target is T5, wild type human CD40 Fc fusion (human, UniProt P25942 21-193).
T5 construct: also called wt-hCD40; not shown: human IgG1 Fc
The description is as above.

Assay [10] addresses T6, human CD40 (W109R) Fc fusion (Chimpanzee CD40) (human, UniProt P25942 21-193).
T6 construct: Same construct as wt-hCD40 with W109R (the residue of chimpanzee CD40); also called hCD40-M3; hCD40 M3 (W109R); not shown: human IgG1 Fc
As to the kind of experiment: SPR, ProteOn XPR36; CD40-Fc captured, dAb analyte.

Assay [11] concerns the target T7, human CD40 (W109L) Fc fusion (human, UniProt P25942 21-193).
T7 construct: Same construct as wt-hCD40 with W109L; also called hCD40-M2; hCD40 M2 (W109L); not shown: human IgG1 Fc
As to the kind of experiment: SPR, ProteOn XPR36; CD40-Fc captured, dAb analyte.

Assay [12] concerns the target T8, human CD40 (W109L, L121P) Fc fusion (human, UniProt P25942 21-193).
T8 construct: Same construct as wt-hCD40 with W109L and L121P; also called hCD40-M4; hCD40 M4 (W109L, L121P); not shown: human IgG1 Fc
As to the kind of experiment: SPR, ProteOn XPR36; CD40-Fc captured, dAb analyte.

In assay [13] the target is T9, wild type cynomolgus monkey CD40 Fc fusion (cynomolgus monkey (Macaca …)).
T9 construct: also called wt-cCD40; wt-cyno-CD40; not shown: human IgG1 Fc
T9 chain: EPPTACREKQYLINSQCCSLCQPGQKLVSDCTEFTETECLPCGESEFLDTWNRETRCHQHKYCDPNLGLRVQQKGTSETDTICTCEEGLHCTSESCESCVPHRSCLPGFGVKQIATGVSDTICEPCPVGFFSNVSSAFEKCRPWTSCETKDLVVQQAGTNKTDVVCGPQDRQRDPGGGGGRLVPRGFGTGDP
As to the kind of experiment: SPR, ProteOn XPR36; CD40-Fc captured, dAb analyte.

Assay [14] addresses T10, human CD40 (H76R, W109L, L121P) Fc fusion (human).
T10 construct: Same construct as wt-hCD40 with H76R, W109L and L121P; also called hCD40-M5; hCD40-M5 (H76R, W109L, L121P); not shown: human IgG1 Fc
T10 chain: T9 chain with S95A, L106S, R142H, Q172L
As to the kind of experiment: SPR, ProteOn XPR36; CD40-Fc captured, dAb analyte.

In assay [15] the target is T5, wild type human CD40 Fc fusion. As to the kind of experiment: SPR, ProteOn XPR36; CD40-Fc captured, dAb analyte; 1:1 fit; repeat.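 Note: CD40-Fc captured on anti-human IgG(Fc) surface of a GLC chip, buffer pH 7.1, sensorgrams double-referenced against surfaces without CD40-Fc.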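 Note: CD40-Fc held on a GLC chip by an immobilized anti-human IgG(Fc) antibody, sensorgrams double-referenced against CD40-free surfaces, running buffer sodium phosphate with NaCl and Tween 20 at pH 7.1.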
Description: Assays were performed on a BioRad ProteOn XPR36 SPR instrument. The SPR surfaces were prepared by immobilizing 8 μg/ml anti-human IgG(Fc) antibody (Biacore/GE Healthcare) in 10 mM sodium acetate pH 4.5 on a BioRad GLC sensor chip using standard ethyl(dimethylaminopropyl) carbodiimide (EDC)/N-hydroxysuccinimide (NHS) chemistry, with ethanolamine blocking. The running buffer for immobilization and kinetic binding analysis was 10 mM sodium phosphate, 130 mM sodium chloride, 0.05% tween 20, pH 7.1. CD40-Fc fusion proteins at concentrations of 20 μg/ml were captured in the vertical orientation on these surfaces via the Fc tail, and reference surfaces lacking CD40-Fc proteins were used for reference subtraction. […] The surfaces were regenerated in both horizontal and vertical orientations with 30 s pulses of 3 M MgCl₂ followed by running buffer at 60 μl/min. Sensogram data was double-referenced and then fitted to a 1:1 Langmuir model using BioRad ProteOn Manager V.2.1.0.38 software, to determine the association rate constant (ka), the dissociation rate constant (kd), and the equilibrium dissociation constant (KD).
Assay [16] addresses T11, human CD40 (W109L, L121P) Fc fusion (human, UniProt P25942 21-193).
T11 construct: As m1 with W109L and L121P; also called hCD40-M4; not shown: human IgG1 Fc
As to the kind of experiment: SPR ProteOn XPR36.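 Note: surface plasmon resonance with CD40-Fc fusions captured through their Fc on an anti-human IgG chip, sensorgrams reference-subtracted against surfaces lacking CD40-Fc.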

Assay [17] addresses T12, human CD40 (H76R, W109L, L121P) Fc fusion (human).
T12 construct: As m1 with H76R, W109L and L121P; also called hCD40-M5; not shown: human IgG1 Fc
T12 chain: T9 chain with S95A, L106S, R142H, Q172L
As to the kind of experiment: SPR ProteOn XPR36.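 Note: surface plasmon resonance with CD40-Fc fusions captured through their Fc on an anti-human IgG chip, sensorgrams reference-subtracted against surfaces lacking CD40-Fc.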

The target of assay [18] is T13, human CD40 (W109R) Fc fusion (Chimpanzee CD40) (human, UniProt P25942 21-193).
T13 construct: As m1 with W109R (residue of chimpanzee CD40); also called hCD40-M3; not shown: human IgG1 Fc
As to the kind of experiment: SPR ProteOn XPR36.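 Note: surface plasmon resonance with CD40-Fc fusions captured through their Fc on an anti-human IgG chip, sensorgrams reference-subtracted against surfaces lacking CD40-Fc.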

Assay [19] concerns the target T14, wild type cynomolgus monkey CD40 Fc fusion (cynomolgus monkey; human).
T14 construct: also called wt-cyno-CD40; wt-cCD40; not shown: human IgG1 Fc
T14 chain: T9 chain
As to the kind of experiment: SPR ProteOn XPR36.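 Note: surface plasmon resonance with CD40-Fc fusions captured through their Fc on an anti-human IgG chip, sensorgrams reference-subtracted against surfaces lacking CD40-Fc.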

Assay [20] has as its target T15, human CD40 (W109L) Fc fusion (human, UniProt P25942 21-193).
T15 construct: As m1 with W109L; also called hCD40-M2; not shown: human IgG1 Fc
As to the kind of experiment: SPR ProteOn XPR36.

Assay [21] deals with T16, wild type human CD40 Fc fusion (human, UniProt P25942 21-193).
T16 construct: also called wt-hCD40; not shown: human IgG1 Fc
As to the kind of experiment: SPR ProteOn XPR36, CD40-Fc captured, dAb analyte.

The target in assay [22] is T17, human CD40 (H76R) Fc fusion (human, UniProt P25942 21-193).
T17 construct: As m1 with H76R; also called hCD40-M1; not shown: human IgG1 Fc
As to the kind of experiment: SPR ProteOn XPR36, CD40-Fc captured, dAb analyte.

Residue numbers refer to the chain shown, from its start. Values joined by “and” are separate entries in the source; they are usually repeats but may differ in a detail not shown here. Equal values may be shown once.

As a reminder, the Kd is the concentration at which binding is half-saturated. A word on the koff: it is the rate constant with which the complex falls apart. As a reminder, the kon is the rate constant with which the complex forms.

B1: BMS3h-56-5C-40L (other)
VH: EVQLLESGGGLVQPGGSLRLSCAASGFTFRDYEMWWVRQAPGKGLERVSAINPQGTRTYYADSVMGRFTISRDNSKNTLYLQMNSLRAEDTAVYYCAKLPFTFDDWGQGTLVTVSS
modifications: PEGylated; attachment residue not stated
notes: PEGylated form of dAb BMS3h-56-5; also called PEGylated anti-human CD40 dAb
With B1, the binding result in [1], in [2] and in [3] was “no binding” in each case.

B2: BMS3h38-2-biotin (other)
VH: EVQLLASGGGLVQPGGSLRLSCAASGFTFEEEEMIWVRQAPGKGLEWVSAISGSGGSTYYADSVKGRFTISRDNSKNTLYLQMNSLRAEDTAVYYCGKEPFRYDYWGQGTLVTVSS
modifications: biotin-conjugated; site not stated
notes: Biotin conjugate of dAb BMS3h-38-2; also called biotin-conjugated dAb
Consider B2, for which the binding result was “no binding” in [4], “no binding” in [5], “no binding” in [6] and “binds” in assay [7].

B3: BMS3h-38-2 (other)
VH: B2 VH
notes: Anti-human CD40 domain antibody (dAb), single VH domain
With B3, the Kd in assay [8] was 7.15 nM; in assay [9], 5.07 nM; in assay [15], 8.04 nM. Further, the koff in assay [8] was found to be 0.001 s⁻¹; in assay [9], 0.000608 s⁻¹; in assay [15] it was 0.00114 s⁻¹. For the same molecule, the kon is 140000 M⁻¹ s⁻¹ in assay [8], 120000 M⁻¹ s⁻¹ in assay [9] and 142000 M⁻¹ s⁻¹ in [15]. For the same molecule, the binding result in assay [10], in assay [11], in [12], in assay [13] and in assay [14] was “no binding (tested: dAb tested up to 405 nM)” throughout.

B4: BMS3h38-2C-P40Br (other)
VH: B2 VH
modifications: PEGylated; attachment residue not stated
notes: PEGylated form of dAb BMS3h-38-2; also called PEGylated anti-human CD40 dAb
On to B4, for which the binding result in assay [1], in assay [2] and in assay [3] was “no binding” in each case.

B5: BMS3h-38-2 (other)
VH: B2 VH
notes: domain antibody (dAb), single VH domain
As for B5, the binding result in [16], in assay [17], in assay [18], in assay [19] and in assay [20] was “no binding (tested: 405 nM)” in each case. For the same molecule, the Kd in assay [21] is 5.1 nM and 8 nM; in [22], 7.2 nM.

Values taken from US20200199244A1 (published 2020).
